Measured values from paper PMC3936261 (Oncogene, 2013).
Like-named read-outs stand apart in the source and are kept apart here.

Legend:
Assay in all cases: other fluorescence titration
[1] = target: T1, PTEN protein labeled with QSY 35 (UniProt P60484 1-403, QSY 35 (label as for the MKP proteins))
[2] = target: T1, PTEN protein labeled with QSY 35; remark: listed apart in the source
[3] = target: T1, PTEN protein labeled with QSY 35; remark: listed apart in the source

T1 sequence (P60484 whole entry): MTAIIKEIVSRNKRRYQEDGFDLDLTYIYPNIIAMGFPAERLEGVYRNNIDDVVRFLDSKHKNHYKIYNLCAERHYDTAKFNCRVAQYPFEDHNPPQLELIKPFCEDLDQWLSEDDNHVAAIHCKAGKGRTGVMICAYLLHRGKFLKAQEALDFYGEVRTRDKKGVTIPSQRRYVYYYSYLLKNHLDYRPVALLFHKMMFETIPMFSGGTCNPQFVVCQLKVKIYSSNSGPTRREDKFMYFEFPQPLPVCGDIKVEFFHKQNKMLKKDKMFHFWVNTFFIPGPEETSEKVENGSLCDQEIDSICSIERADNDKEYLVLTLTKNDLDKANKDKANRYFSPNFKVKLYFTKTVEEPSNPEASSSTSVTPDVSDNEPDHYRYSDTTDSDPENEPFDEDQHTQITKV

Kd [1]: 215 ± 19.5 nM
Kd [2]: 220 ± 22.5 nM
Kd [3]: 247 nM
B1: Prdx1 protein labeled with Alexa Fluor 546 (enzyme, UniProt Q06830 1-199, looked up)
chain: MSSGNAKIGHPAPNFKATAVMPDGQFKDISLSDYKGKYVVFFFYPLDFTFVCPTEIIAFSDRAEEFKKLNCQVIGASVDSHFCHLAWVNTPKKQGGLGPMNIPLVSDPKRTIAQDYGVLKADEGISFRGLFIIDDKGILRQITVNDLPVGRSVDETLRLVQAFQFTDKHGEVCPAGWKPGSDTIKPDVQKSKEYFSKQK
modifications: Alexa Fluor 546 on primary amines (succinimidylester of Alexa Fluor 546 carboxylic acid)
